Source: the nanobody polyreactivity screen of Harvey et al. (2022)

Assay: yeast display, Sf9 membrane polyspecificity reagent, FACS + sequencing; frameworks hold sequencing errors
How it was run: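 Polyreactivity labels are assigned by the sorting gate from which each nanobody was recovered. The gates were low and high (top ~1%), set on anti-HA fluorescence for expression and streptavidin fluorescence for reagent binding. Before sorting, galactose-induced (36–48 hours) yeast display cells were stained for 1 hour at 4 °C with 10% biotinylated, detergent-solubilized Sf9 membrane reagent.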

| Sequence | polyreactivity (PSR sort gate) |
| --- | --- |
| QVQLVESGGGLVQAGGSLRLSCAASGSTLVSNAMGWYRQAPGKERELVASISYSATSTYYADSVKGRFTISRDNAKNTVYLQMNSLKPEDTAVYYCAAKTFRSRYYYWGQGTQVTVSS | high polyreactivity |
| QVQLVESGGGLVQAGGSLRLSCAASGSTLVTYAMGWYRQAPGKERELVAGISSGGSTNYADSVKGRFTISRDNAKNTVYLQMNSLKPEDTAVYYCAAQGSLTWWAATFIYDYWGQGTQVTVSS | low polyreactivity |
| QVQLVESGGGLVQAGGSLRLSCAASGSTLVYNAMGWYRQAPGKERELVAAISRSGGITYYADSVKGRFTISRDNAKNTVYLQMNSLKPEDTAVYYCNAVVRTRYRPGYDYDYWGQGTQVTVSS | high polyreactivity |
| QVQLVESGGGLVQAGGSLRLSCAASGSTLVYNDMGWYRQAPGKEREFVAAIRSNDGSTYYADSVKGRFTISRDNAKNTVYLQMNSLKPEDTAVYYCNKDVWDGYDWPEFDYWGQGTQVTVSS | low polyreactivity |
| QVQLVESGGGLVQAGGSLRLSCAASGSTLWAYAMGWYRQAPGKERELVASISSGGNTNYADSVKGRFTISRDNAKNTVYLQMNSLKPEDTAVYYCAAVGYLYFWYPYDYWGQGTQLTVSS | low polyreactivity |
| QVQLVESGGGLVQAGGSLRLSCAASGSTLWYNARGWYRDAPGKERELVAAITTSTDSTYYADSVKGRFTISRYNAKNTVYLQMNSLKPEDTAVYYCAAVLHLNGGGKAYDYWGLGTQVTVSS | low polyreactivity |
| QVQLVESGGGLVQAGGSLRLSCAASGSTLYGYVMGWYRQAPGKERELVADITWSGGSTYYADSVKGRFIISRDNAKNTVYLQMNSLKPEDTAVYYCNADRYGIYYYSRLPFDYWGQGTQVTVSS | low polyreactivity |
| QVQLVESGGGLVQAGGSLRLSCAASGSTLYHNAMGWYRQAPGKERELVAAITRGGSTYYADSVKGRFTISRDNAKNTVYLQMNILKPEDTAVYYCAVAVLVYYGKYYPYKMYYWGQGTQVTVSS | high polyreactivity |
| QVQLVESGGGLVQAGGSLRLSCAASGSTLYLNAMGWYRQAPGKERELDASISNGVNTNYADSVKGRFTISRDNAKNTVYLLMNSLKPEDTAVYYCAKEKRFQKTVHRKPAYDYWGQGTQVTVSS | low polyreactivity |
| QVQLVESGGGLVQAGGSLRLSCAASGSTLYPYAMGWYRQAPGKEWELVAVITLRGGSTYYADSVKGRFTISRDNAKNSVSVQMKSLKPEDTAVYYCAADPRKVHSDDYDYWGQGTQVNVSS | high polyreactivity |
| QVQLVESGGGLVQAGGSLRLSCAASGSTLYPYDMGWYRPAPGKERELVAAIDSGGSTNYADSVKGRFTISRDNAKNTVYLQMNSLKPEDTAVYYCATEILTSARDTVVYQFYLGYYYWGQGTQVTVSS | low polyreactivity |
| QVQLVESGGGLVQAGGSLRLSCAASGSTLYRYAMGWYRQAPGKERELVAAITRGSGSTYYADSVKGRFTISRDNAKNTVYLQMNSLKPEDTAVYYCATVKRNHLDGFEYWGQGTQVTVSS | high polyreactivity |
| QVQLVESGGGLVQAGGSLRLSCAASGSTLYSYAMGWSRQAPGKEREFVAAITSDDGSTYYADSVKGRFTISRDNAKNTVYLQMNSLKPEDTAVYYCATAGSVEYNYWGQGTQVTVSS | low polyreactivity |
| QVQLVESGGGLVQAGGSLRLSCAASGSTLYVNAMGCYIQAPGKERELVAAISSGGGRTYYADSVKGRFTISRDNAKNTVYLQMNSLKPEETAVYYCARKPYYPYDYWGQGTLVTVSS | low polyreactivity |
| QVQLVESGGGLVQAGGSLRLSCAASGSTLYWNAMGWYRQAPGKDRELVATINTNGGSTYYADSVKGRFTISRDNAKNTVYLQMNSLKPEDTAVYYCAAQVRQWGYFRYYYWGQGTQVTVSS | high polyreactivity |
| QVQLVESGGGLVQAGGSLRLSCAASGSTQNVYAMGWYRQATGKERELVAAIRWSGDTYYADSVKGRFTISRDNAKNTVYLQMNSLKPEDTAVYYCAAVPGTTYWQRFDYWGQGTQVTVSS | low polyreactivity |
| QVQLVESGGGLVQAGGSLRLSCAASGSTQYWNAMGWYRQAPGKERELVAAISRSGGSTYYADSVKGRFTISRDNAKNTVYLQINSLKPEDTAVYYCAARRYVPHTEYYYWGQGTQVTVSS | low polyreactivity |
| QVQLVESGGGLVQAGGSLRLSCAASGSTRFWKDMGWYRQAPWKERELVAVISFSGVSTYYADSVKGRFTISRDNAKNTVYIQMNRLKPEDTAVYYCAIEDGYSQLKTTFDEPGYGSWGQGTQVNVSS | low polyreactivity |
| QVQLVESGGGLVQAGGSLRLSCAASGSTRRDYVMGWYRQAPGKERELVAAITSRVDDTYYADSVKGRFTISRDNAKNTVYLQLNSLKPEDTAVYYCAADYSVTLRIGGYYWFYAFDYWGQGTQLTVSS | low polyreactivity |
| QVQLVESGGGLVQAGGSLRLSCAASGSTRYYAMGWYRQAPGKERELVATISSRSRTYYADSVKGRFTISRDNAKNTVYLQMNSLKPDDPAVYYCAARRRRFYYQYYRYDYWGQGTQVTVSS | high polyreactivity |
| QVQLVESGGGLVQAGGSLRLSCAASGSTSAYYVMGWYRQAPGKERELVAAIDFSGDSTYYADSVKGRFTISRDNAKNTVYLQMNSLKPEDTAVYYCAAELFNYSSLVSYEYWGQGTQVTVSS | high polyreactivity |
| QVQLVESGGGLVQAGGSLRLSCAASGSTSRKYTMGWYRQAPGKERELVATISWSGGSTNYADSVKGRFTISRDNAKNTVYLQMNSLKPEDTAVYYCNAYVSPRYRGSRYYYWGQGTQVTVSS | high polyreactivity |

| Sequence | polyreactivity (PSR sort gate) |
| --- | --- |
| QVQLVESGGGLVQAGGSLRLSCAASGSTSRYNAMGWYRQAPGKERELVARINSGGTTNYADSVKGRFTISRDNAKNTVYLQMNSLKPEDTAVYYCNAYYYFWGQGTQVTVSS | low polyreactivity |
| QVQLVESGGGLVQAGGSLRLSCAASGSTSRYYDMGWYRQAPGTERELVAAITWSGGTTYYADSVKGRFTISRDNAKNTVYLQMNSLKPEDTAVYYCAASRRGGLYTRYHYWGQGTQVTVSS | low polyreactivity |
| QVQLVESGGGLVQAGGSLRLSCAASGSTSSLNAMGWYRQAPGKEREFVATISFGGGRTYYADSVKGRFTISRDNAKNTVYLQMNSLKPEDTAVYYCAAVGSRWFSQTWRDYWGQGTQVTVSS | high polyreactivity |
| QVQLVESGGGLVQAGGSLRLSCAASGSTSSVMLWMGWYRQAPGKEREFVAGISWIDATTYYADSVKGRFTISRDNAKNTVYLQMNSLKPEDTAVYYCAADVRWLWYWYGRYDYWGQGTQVTVSS | high polyreactivity |
| QVQLVESGGGLVQAGGSLRLSCAASGSTSTYNAMGWYRQAPGTERELVAAITESGGSTYYADSVKGRFTISRDNAKNTVYLQMNSLKPEDTAVYYCAADQTYTYDYWGQGTQVTVSS | low polyreactivity |
| QVQLVESGGGLVQAGGSLRLSCAASGSTSVDYTMGWYRQAPGKESELVAAIDYNGDSTYYADSVKGRFTISRDNAKITVYLQMNRLKPEDTAVYYCAADVWTLDPDEYDYWGQGTQVTLSS | low polyreactivity |
| QVQLVESGGGLVQAGGSLRLSCAASGSTSVGNAMGWYRQAPGKERELVAAISRIGGTTYYADSVKGRFTISRDNAKNTVYLQMNSLKPEDTAVYYCNVLKRYWSGRVDYWGQGTQVTVSS | high polyreactivity |
| QVQLVESGGGLVQAGGSLRLSCAASGSTSVYYAMGWYRQTPGKERELVAAITWDDGSTSYADSVKGRFTISRDNAKNTVYLQMNSLKPEDTAVYYCAKDYEYLGAFNYWGQGTQVTVSS | low polyreactivity |
| QVQLVESGGGLVQAGGSLRLSCAASGSTSWYNAMGWYRQAPGKESELVAAISKSGTSTHYADSVKGRFTISRDNAKNTVYIQMNSRKPEDTAVYYCNRVRYALRRFYGTAVGYWGQGTQVTVSS | low polyreactivity |
| QVQLVESGGGLVQAGGSLRLSCAASGSTSYTNAMGWYRQAPGKERELVAGITRSGDSTYYADSVKGRFTISRDNAKNTVYLQMNSLKPEDTAVYYCAAEYSGQYYSPVSYLYDYWGQGTQVTVSS | high polyreactivity |
| QVQLVESGGGLVQAGGSLRLSCAASGSTSYVYAMGWYRQAPGKEREFVAAIRSSGGDTYYADSVKGRFTISRDNAKNTVYLQMNRLKPEDSAVYYCNDRYATAVARFGYWGQGTQVTVSS | high polyreactivity |
| QVQLVESGGGLVQAGGSLRLSCAASGSTTSVNAMGWYTQAPGKEREFVATISFGGGRTYYADSVKGRFTISRDNAKNTVYLQRNSRKPEDTAVYYCAAVGSRWFSQTWRDYWGQGTQVTVSS | high polyreactivity |
| QVQLVESGGGLVQAGGSLRLSCAASGSTTYAMGWYRQAPVKERELVAGITFSGGSTNYADSVKGRFTISRDNAKNTVYLQMNSLKPEDTAVYYCAAKLWHHSYRYDYWGQGTQVTVSS | low polyreactivity |
| QVQLVESGGGLVQAGGSLRLSCAASGSTVAYYAMGWYRQAPGKERELVAAITWNGGRTFYADSVKGRFTISRDNAKNTVYLQMNSLKPEDTAVYYCAAATYQSRYFQRFDYWGQGTQVTVSS | high polyreactivity |
| QVQLVESGGGLVQAGGSLRLSCAASGSTVDANAMGWYRPAPGKERELVATISDGGSTNYADSVKGRFTISRDNAKKTVYVQKNSLKPEDTAVYYCAAVKLFLGLGYDYWGQGTQVTVSS | low polyreactivity |
| QVQLVESGGGLVQAGGSLRLSCAASGSTVHYMGWYRPAPGKERELVAGISWSGGSTYYADSVKGRFTISRDNAKNTVYLQMTSLKPEDTAVYYCAADIKIRLYTTGDYWGQGTQVTVSS | low polyreactivity |
| QVQLVESGGGLVQAGGSLRLSCAASGSTVYLNAMGWYRQAPGKDRELVAAITRIGGSTYYADSVKGRFTISRDNAKNTVYLQMNSLKPEDTAVYYCAKDYGPARHDRYGYWGLGTQVTVSS | low polyreactivity |
| QVQLVESGGGLVQAGGSLRLSCAASGSTVYYNAMGWYRQAPGKERELVADITTSGDSTYYADSVKGRFTISRDNAKNTVYFQMNSLKPEDTAVYYCNAGVVGDYPYWGLMDYWGQGTQVTVSS | high polyreactivity |
| QVQLVESGGGLVQAGGSLRLSCAASGSTWWYDMGSYRQAPGKERELVASISSGDSTNYADSVKGRFTISRDNAKNTVYLQMNSLKPEDTAVYYCAADFNFGFVWGDDYDYWGQGTQVTVSS | low polyreactivity |
| QVQLVESGGGLVQAGGSLRLSCAASGSTYAMGWYRQAPGKERELVASITSRGGSTYYADSVKGRFTISRDNANNTVYLQMNSLKPEDTAVYYCAARWYYSYICYDYWRQGTQVTVSS | high polyreactivity |
| QVQLVESGGGLVQAGGSLRLSCAASGSTYDSNAMGWYRQAPGKERELVAAIDWSGGSTYYADSVKGRFTISRDNAKNTVYLQMNSLKPADTAVYYCAADDSSINYGDFDYWGQGTQVTVSS | low polyreactivity |
